Data from paper PMC6086316, “Interactions between the Aggregatibacter actinomycetemcomitans secretin HofQ and host cytokines indicate a link between natural competence and interleukin-8 uptake” (Virulence, 2018).
Residue numbers refer to the chain shown, from its start. In names and notes the source's numbering stands.

B1: emHofQ_L1 (H136A, F137A, K139A) (domain or fragment)
chain: QNPVFSIRLKQAPLVPTLQQLALAHNTNLIIDDELQGTVSLQLENVDLDQLFRSVAKIKQLDLWQENGIYYFTKGDTNTKFAGKMEEPFPLSLPMAEEPAQLNTATIKLAAAAASEVMKSLTGGSGSLLSPNGSITFDDRSNLLLIQDEPRSVRNIKKLIKELDKPIEQ
notes: they already carry the substitutions; Secretin HofQ of Aggregatibacter actinomycetemcomitans, extramembranous domain, residues 27-195; The printed gene begins with ATG (Met, in the NdeI site) and ends with CTC GAG (Leu-Glu, XhoI site) before the His tag of pET36b; also called emHofQ mutant L1; source: E. coli BL21 CodonPlus (DE3) RIL, induced overnight at 16°C, purified (HisTrap, size-exclusion …)
B2: emHofQ_L2 (D165A, R166A) (domain or fragment)
chain: B1 chain with A110H, A111F, A113K, D139A, R140A
notes: they already carry the substitutions; Secretin HofQ of Aggregatibacter actinomycetemcomitans, extramembranous domain, residues 27-195; The printed gene begins with ATG (Met, in the NdeI site) and ends with CTC GAG (Leu-Glu, XhoI site) before the His tag of pET36b; also called emHofQ mutant L2; source: E. coli BL21 CodonPlus (DE3) RIL, induced overnight at 16°C, purified (HisTrap, size-exclusion …)
B3: emHofQ_L1L2 (H136A, F137A, K139A, D165A, R166A) (domain or fragment)
chain: B1 chain with D139A, R140A
notes: they already carry the substitutions; Secretin HofQ of Aggregatibacter actinomycetemcomitans, extramembranous domain, residues 27-195; The printed gene begins with ATG (Met, in the NdeI site) and ends with CTC GAG (Leu-Glu, XhoI site) before the His tag of pET36b; also called emHofQ mutant L1L2; source: E. coli BL21 CodonPlus (DE3) RIL, induced overnight at 16°C, purified (HisTrap, size-exclusion …)

molecular target: T1, human mature interleukin-1β (IL-1β, amino acids 117-269) (human); assay: time-resolved fluorometric immunoassay (TRFIA); 60 pmol IL-8 or IL-1β coated on wells; emHofQ wild type and mutants 5 nM-2 μM, 4°C overnight; Eu-N1 anti-6xHis antibody; apparent Kd; settings: both partners purified
T1 construct: Human mature IL-1β, amino acids 117-269; Expressed from pET-28bTEV; source: E. coli BL21 CodonPlus (DE3) RIL, purified (HisTrap, TEV cleavage, size-exclusion chromatography); not shown: His6, N-terminal, cleaved
T1 sequence (chain, as listed by the source): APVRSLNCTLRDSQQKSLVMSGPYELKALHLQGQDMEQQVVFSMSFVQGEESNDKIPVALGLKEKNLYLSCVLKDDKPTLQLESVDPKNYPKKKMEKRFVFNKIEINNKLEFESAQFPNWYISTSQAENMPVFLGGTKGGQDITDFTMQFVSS

B1 and B2 are within error of each other in Kd: 450 ± 160 nM for the first, 330 ± 70 nM for the second.

B3 gave a Kd of 440 ± 70 nM.
